Source: article PMC5736220, “Using thermal scanning assays to test protein-protein interactions of inner-ear cadherins” (PLoS ONE, 2017)
Positions count from the first letter of the chain named. Names and notes keep the numbering of the source. Values belong to the binder of their own block, whether it stands above or below them.

Legend:
Conditions in all cases: both partners purified
[1] = target: T1, protocadherin-15 EC1+2, wild type, His-tagged (mouse, UniProt Q99PJ1 27-259); assay: thermal scanning (thermal stability shift assay with SYPRO orange); pcdh15 fixed at 0.1 mg/mL (~4 μM), cdh23 0.1 to 0.5 mg/mL (~4 to 20 μM; cdh23:pcdh15 1:1 to 5:1); SEC buffer (20 mM Tris-HCl pH 7.5, 150 mM KCl, 50 mM NaCl, 2 mM CaCl2); 10 to 95°C in 0.2°C steps, 5 s equilibration; read-out: shift of the Tm of pcdh15 (ΔTm)
T1 construct: Protocadherin-15 (PCDH15), mouse, N-terminal fragment EC1+2; pET21a, NdeI/XhoI; predicted molecular weight 27.5 kDa; Held on the Ni-NTA chip by its His tag in SPR; also called pcdh15; pcdh15(WT); not shown: His6, C-terminal, kept

[2] = target: T2, protocadherin-15 EC1+2 G16D, His-tagged (mouse, UniProt Q99PJ1 27-259, G16D); assay: as above
T2 construct: Protocadherin-15 (PCDH15), mouse, N-terminal fragment EC1+2; Mutant of m12 made with QuikChange; Held on the Ni-NTA chip by its His tag in SPR; also called pcdh15(G16D); not shown: His6, C-terminal, kept

[3] = target: T3, protocadherin-15 EC1+2 Q165L, His-tagged (mouse, UniProt Q99PJ1 27-259, Q165L); assay: as above
T3 construct: Protocadherin-15 (PCDH15), mouse, N-terminal fragment EC1+2; Mutant of m12 made with QuikChange; Held on the Ni-NTA chip by its His tag in SPR; also called pcdh15(Q165L); not shown: His6, C-terminal, kept

[4] = target: T4, protocadherin-15 EC1+2 I108N, His-tagged (mouse, UniProt Q99PJ1 27-259, I108N); assay: as above
T4 construct: Protocadherin-15 (PCDH15), mouse, N-terminal fragment EC1+2; Deafness-related missense mutation put into the mouse fragment m12 with QuikChange; also called pcdh15(I108N)

[5] = target: T5, protocadherin-15 EC1+2 H91R, His-tagged (mouse, UniProt Q99PJ1 27-259, H91R); assay: as above
T5 construct: Protocadherin-15 (PCDH15), mouse, N-terminal fragment EC1+2; Mutant of m12 made with QuikChange; also called pcdh15(H91R)

[6] = target: T1, protocadherin-15 EC1+2, wild type, …; assay: SEC; analytical, Superdex 75 3.2/3.0, SEC buffer, 4°C, 100 μL loop, 0.05 mL/min; complex read from a decrease in elution volume of the mixture
[7] = target: T1, protocadherin-15 EC1+2, wild type, …; assay: SPR; Biacore T100, Ni-NTA chip, 6xHis pcdh15 immobilised, tag-free cdh23 0.25 to 30 μM injected, 25°C, SEC buffer; global kinetic fit with EVILFIT (distribution model)
[8] = target: T2, protocadherin-15 EC1+2 G16D, His-tagged; assay: as above
[9] = target: T3, protocadherin-15 EC1+2 Q165L, His-tagged; assay: as above
[10] = target: T1, protocadherin-15 EC1+2, wild type, …; assay: SPR; Biacore T100, Ni-NTA chip, 6xHis pcdh15 immobilised, tag-free cdh23 0.25 to 30 μM injected, 25°C, SEC buffer; KD from binding isotherms (Biacore T100 evaluation software)
[11] = target: T2, protocadherin-15 EC1+2 G16D, His-tagged; assay: as above
[12] = target: T3, protocadherin-15 EC1+2 Q165L, His-tagged; assay: as above

B1: cadherin-23 EC1+2, wild type, His-tagged (domain or fragment, mouse)
chain: QVNRLPFFTNHFFDTYLLISEDTPVGSSVTQLLARDMDNDPLVFGVSGEEASRFFAVEPDTGVVWLRQPLDRETKSEFTVEFSVSDHQGVITRKVNIQVGDVNDNAPTFHNQPYSVRIPENTPVGTPIFIVNATDPDLGAGGSVLYSFQPPSPFFAIDSARGIVTVIQELDYEVTQAYQLTVNATDQDKTRPLSTLANLAIIITD
notes: Cadherin-23 (CDH23), mouse, N-terminal fragment EC1+2; pET21a, NdeI/XhoI; predicted molecular weight 23.8 kDa; also called cdh23; cdh23(WT)
- ΔTm of pcdh15 at cdh23:pcdh15 1:1 [1]: 1.8 ± 0.8 °C
- ΔTm of pcdh15 at cdh23:pcdh15 2:1 [1]: 3.2 ± 0.7 °C
- ΔTm of pcdh15 at cdh23:pcdh15 3:1 [1]: 4.1 ± 0.8 °C
- ΔTm of pcdh15 at cdh23:pcdh15 4:1 [1]: 5 ± 0.7 °C
- ΔTm of pcdh15 at cdh23:pcdh15 5:1 [1]: 5.5 ± 0.8 °C
- ΔTm of pcdh15 at cdh23:pcdh15 1:1 [2]: 3 ± 0.5 °C
- ΔTm of pcdh15 at cdh23:pcdh15 2:1 [2]: 4.5 ± 0.7 °C
- ΔTm of pcdh15 at cdh23:pcdh15 3:1 [2]: 5.6 °C
- ΔTm of pcdh15 at cdh23:pcdh15 4:1 [2]: 6.2 ± 0.1 °C
- ΔTm of pcdh15 at cdh23:pcdh15 5:1 [2]: 6.8 ± 0.4 °C
- ΔTm of pcdh15 at cdh23:pcdh15 1:1 [3]: 1.1 ± 0.4 °C
- ΔTm of pcdh15 at cdh23:pcdh15 2:1 [3]: 1.7 ± 0.7 °C
- ΔTm of pcdh15 at cdh23:pcdh15 3:1 [3]: 2.3 ± 0.6 °C
- ΔTm of pcdh15 at cdh23:pcdh15 4:1 [3]: 2.7 ± 0.9 °C
- ΔTm of pcdh15 at cdh23:pcdh15 5:1 [3]: 3.7 ± 1.1 °C
- ΔTm of pcdh15 at cdh23:pcdh15 1:1 [4]: 0 °C
- ΔTm of pcdh15 at cdh23:pcdh15 2:1 [4]: 0.2 ± 0.2 °C
- ΔTm of pcdh15 at cdh23:pcdh15 3:1 [4]: 0.4 ± 0.1 °C
- ΔTm of pcdh15 at cdh23:pcdh15 4:1 [4]: 0.4 ± 0.1 °C
- ΔTm of pcdh15 at cdh23:pcdh15 5:1 [4]: 0.5 °C

B2: cadherin-23 EC1+2 T79E, His-tagged (domain or fragment, mouse)
chain: B1 chain with T79E
notes: Cadherin-23 (CDH23), mouse, N-terminal fragment EC1+2; Mutant of m1 made with QuikChange; also called cdh23(T79E)
- ΔTm of pcdh15 at cdh23:pcdh15 1:1 [5]: 2.1 ± 0.4 °C
- ΔTm of pcdh15 at cdh23:pcdh15 2:1 [5]: 4.1 ± 0.5 °C
- ΔTm of pcdh15 at cdh23:pcdh15 3:1 [5]: 5.3 ± 1.8 °C
- ΔTm of pcdh15 at cdh23:pcdh15 4:1 [5]: 6 ± 1.8 °C
- ΔTm of pcdh15 at cdh23:pcdh15 5:1 [5]: 7.3 ± 1.3 °C

B3: cadherin-23 EC1+2 F7E, His-tagged (domain or fragment, mouse)
chain: B1 chain with F7E
notes: Cadherin-23 (CDH23), mouse, N-terminal fragment EC1+2; Mutant of m1 made with QuikChange; also called cdh23(F7E)
- ΔTm of pcdh15 at cdh23:pcdh15 1:1 [1]: 1.7 ± 0.6 °C
- ΔTm of pcdh15 at cdh23:pcdh15 2:1 [1]: 4.8 ± 0.6 °C
- ΔTm of pcdh15 at cdh23:pcdh15 3:1 [1]: 5.5 ± 0.3 °C
- ΔTm of pcdh15 at cdh23:pcdh15 4:1 [1]: 5.9 ± 0.2 °C
- ΔTm of pcdh15 at cdh23:pcdh15 5:1 [1]: 7 ± 0.2 °C

B4: cadherin-23 EC1+2 T15E, His-tagged (domain or fragment, mouse)
chain: B1 chain with T15E
notes: Cadherin-23 (CDH23), mouse, N-terminal fragment EC1+2; Mutant of m1 made with QuikChange; also called cdh23(T15E)
- ΔTm of pcdh15 at cdh23:pcdh15 1:1 [1]: 2.3 ± 0.4 °C
- ΔTm of pcdh15 at cdh23:pcdh15 2:1 [1]: 3.9 °C
- ΔTm of pcdh15 at cdh23:pcdh15 3:1 [1]: 4.8 ± 0.1 °C
- ΔTm of pcdh15 at cdh23:pcdh15 4:1 [1]: 6 ± 0.5 °C
- ΔTm of pcdh15 at cdh23:pcdh15 5:1 [1]: 6.7 ± 0.6 °C
- ΔTm of pcdh15 at cdh23:pcdh15 1:1 [2]: 2.4 ± 0.4 °C
- ΔTm of pcdh15 at cdh23:pcdh15 2:1 [2]: 4.5 ± 0.8 °C
- ΔTm of pcdh15 at cdh23:pcdh15 3:1 [2]: 5.5 ± 0.7 °C
- ΔTm of pcdh15 at cdh23:pcdh15 4:1 [2]: 6.5 ± 1.2 °C
- ΔTm of pcdh15 at cdh23:pcdh15 5:1 [2]: 7.2 ± 1.1 °C

B5: cadherin-23 EC1+2 S76V, His-tagged (domain or fragment, mouse)
chain: B1 chain with S76V
notes: Cadherin-23 (CDH23), mouse, N-terminal fragment EC1+2; Mutant of m1 made with QuikChange; also called cdh23(S76V)
- ΔTm of pcdh15 at cdh23:pcdh15 1:1 [1]: 1.7 ± 1 °C
- ΔTm of pcdh15 at cdh23:pcdh15 2:1 [1]: 3 ± 1.7 °C
- ΔTm of pcdh15 at cdh23:pcdh15 3:1 [1]: 4 ± 1.5 °C
- ΔTm of pcdh15 at cdh23:pcdh15 4:1 [1]: 5.1 ± 1.8 °C
- ΔTm of pcdh15 at cdh23:pcdh15 5:1 [1]: 5.4 ± 1.9 °C

- binding result [6]: binds
B6: cadherin-23 EC1+2 T190W, His-tagged (domain or fragment, mouse)
chain: B1 chain with T190W
notes: Cadherin-23 (CDH23), mouse, N-terminal fragment EC1+2; Mutant of m1 made with QuikChange; also called cdh23(T190W)

- Kd [7]: 3.72 ± 1.65 µM
- koff [7]: 0.2 ± 0.04 s⁻¹
- kon [7]: 61900 M⁻¹ s⁻¹
- Kd [8]: 2000 ± 990 nM
- koff [8]: 0.17 ± 0.01 s⁻¹
- kon [8]: 94800 M⁻¹ s⁻¹
- Kd [9]: 3.94 ± 1.11 µM
- koff [9]: 0.22 ± 0.04 s⁻¹
- kon [9]: 55900 M⁻¹ s⁻¹
- Kd [10]: 1380 ± 360 nM
- Kd [11]: 1110 ± 70 nM
- Kd [12]: 2600 nM
B7: cadherin-23 EC1+2 (residues 1-205), wild type, tagless (domain or fragment, mouse)
chain: QVNRLPFFTNHFFDTYLLISEDTPVGSSVTQLLARDMDNDPLVFGVSGEEASRFFAVEPDTGVVWLRQPLDRETKSEFTVEFSVSDHQGVITRKVNIQVGDVNDNAPTFHNQPYSVRIPENTPVGTPIFIVNATDPDLGAGGSVLYSFQPPSPFFAIDSARGIVTVIQELDYEVTQAYQLTVNATDQDKTRPLSTLANLAIIITDA
notes: an Ala residue included between CDH23 EC2 and the intein tag to improve cleavage efficiency; pTXB1, NdeI/SapI; That the added Ala stays on the C-terminus after thiol-induced cleavage, and that a start Met precedes residue 1, are surmised; also called tag-free cdh23; tagless cdh23

- Kd [7]: 2.79 ± 0.88 µM
- koff [7]: 0.18 ± 0.01 s⁻¹
- kon [7]: 68800 M⁻¹ s⁻¹
- Kd [10]: 1160 ± 560 nM
B8: cadherin-23 EC1+2 (residues 1-205) S76V, tagless (domain or fragment, mouse)
chain: B7 chain with S76V
notes: an Ala residue included between CDH23 EC2 and the intein tag to improve cleavage efficiency; Mutant of m8; That the added Ala stays on the C-terminus after cleavage is surmised; also called cdh23(S76V)

- Kd [7]: 2.05 ± 0.1 µM
- koff [7]: 0.11 ± 0.01 s⁻¹
- kon [7]: 55100 M⁻¹ s⁻¹
- Kd [8]: 1420 ± 50 nM
- koff [8]: 0.09 s⁻¹
- kon [8]: 61400 M⁻¹ s⁻¹
- Kd [10]: 880 ± 60 nM
- Kd [11]: 620 ± 110 nM
B9: cadherin-23 EC1+2 (residues 1-205) T15E, tagless (domain or fragment, mouse)
chain: B7 chain with T15E
notes: an Ala residue included between CDH23 EC2 and the intein tag to improve cleavage efficiency; Mutant of m8; That the added Ala stays on the C-terminus after cleavage is surmised; also called cdh23(T15E)

- Kd [7]: 3.25 ± 0.25 µM
- koff [7]: 0.22 ± 0.04 s⁻¹
- kon [7]: 66000 M⁻¹ s⁻¹
- Kd [10]: 1580 ± 30 nM
B10: cadherin-23 EC1+2 (residues 1-205) F7E, tagless (domain or fragment, mouse)
chain: B7 chain with F7E
notes: an Ala residue included between CDH23 EC2 and the intein tag to improve cleavage efficiency; Mutant of m8; That the added Ala stays on the C-terminus after cleavage is surmised; also called cdh23(F7E)
